In paper PMC10145227:

How the values were obtained:
[1] = fibrin plate lysis area, t-PA standard; settings: control: rDSPAα1
[2] = nanoDSF, F350/F330 ratio and scattering; settings: control: rDSPAα1
[3] = purified protein yield from P. pastoris; settings: control: rDSPAα1
[4] = S-2765 activity after 1 h at 30-90 °C or pH 3-12; settings: control: rDSPAα1
[5] = ELISA time course after dosing; settings: control: rDSPAα1
[6] = thrombus length, dry and wet weight; settings: control: rDSPAα1
[7] = hindlimb vein bleeding time after dosing; settings: control: rDSPAα1
[8] = ELISA, slope of concentration versus time; settings: control: rDSPAα1
[9] = ratio of S-2765 Kcat/Km, fibrin/fibrinogen; settings: control: rDSPAα1
[10] = plasma plasminogen ELISA, slope versus time; settings: control: rDSPAα1
[11] = H&E thrombus section score (higher is worse); settings: control: rDSPAα1
[12] = recanalization rate, FeCl3 carotid thrombosis; settings: control: rDSPAα1
[13] = S-2765 hydrolysis kinetics, fibrin cofactor; settings: control: rDSPAα1
[14] = blood routine examination, 1 h after dosing; settings: glycan gained; control: rDSPAα1
[15] = S-2765 hydrolysis kinetics, fibrinogen cofactor; settings: control: rDSPAα1
[16] = S-2765 hydrolysis kinetics, no cofactor; settings: glycan lost; control: rDSPAα1

B1: DSPAα1: ANGlyα1 + U (protein)
parent chain: MVNTMKTKLLCVLLLCGAVFSLPRQETYRQLARGSRAYGVACKDEITQMTYRRQESWLRPEVRSKRVEHCQCDRGQARCHTVPVNSCSEPRCFNGGTCWQAVYFSDFVCQCPAGYTGKRCEVDTRATCYEGQGVTYRGTWSTAESRVECINWNSSLLTRRTYNGRMPDAFNLGLGNHNYCRNPNGAPKPWCYVIKAGKFTSESCSVPVCSKATCGLRKYKEPQLHSTGGLFTDITSHPWQAAIFAQNRRSSGERFLCGGILISSCWVLTAAHCFQESYLPDQLKVVLGRTYRVKPGEEEQTFKVKKYIVHKEFDDDTYNNDIALLQLKSDSPQCAQESDSVRAICLPEANLQLPDWTECELSGYGKHKSSSPFYSEQLKEGHVRLYPSSRCAPKFLFNKTVTNNMLCAGDTRSGEIYPNVHDACQGDSGGPLVCMNDNHMTLLGIISWGVGCGEKDVPGVYTKVTNYLGWIRDNMHL
[1]; glycan gained
  enzymatic_activity, percent_of_wt: decreases
[2]; glycan gained
  stability_or_folding: no change
[3]; glycan gained
  expression_or_secretion, percent_of_wt: no change
[4]; glycan gained
  stability_or_folding: no change

B2: DSPAα1: QNGlyα1 (protein)
parent chain: B1 parent chain
[5]; glycan lost
  other: plasma D-dimer course in rats: increases
  other: plasma α2-AP concentration in rats: no change
[6]; glycan lost
  other: thrombolytic efficacy in rats: abolishes
[1]; glycan lost
  enzymatic_activity, percent_of_wt: abolishes
[2]; glycan lost
  stability_or_folding: no change
[3]; glycan lost
  expression_or_secretion, percent_of_wt: decreases
[7]; glycan lost
  other: bleeding time in rats: increases
[8]; glycan lost
  other: plasma FDP rise in rats: decreases
[9]; glycan lost
  other: fibrin selectivity, other: ratio Fbn/Fbg: decreases, 0.700 vs 20.800
[10]; glycan lost
  other: plasminogen activation in rats: abolishes
[11]; glycan lost
  other: thrombolytic efficacy in rats, other: total score: decreases, 103.333 ± 0.816 vs 61.667 ± 1.966
[12]; glycan lost
  other: thrombolytic efficacy in rats, other: recanalized rats: abolishes, 0/8 vs 4/8
[4]; glycan lost
  stability_or_folding: no change

B3: DSPAα1: ANGlyα1 + 2 (protein)
parent chain: B1 parent chain
[5]; glycan gained
  other: plasma D-dimer course in rats: changes
  other: plasma PAI concentration in rats: no change
  other: plasma α2-AP concentration in rats: decreases
[6]; glycan gained
  other: thrombolytic efficacy in rats: decreases
[1]; glycan gained
  enzymatic_activity, percent_of_wt: decreases
[2]; glycan gained
  stability_or_folding: no change
[3]; glycan gained
  expression_or_secretion, percent_of_wt: no change
[7]; glycan gained
  other: bleeding time in rats: no change
[8]; glycan gained
  other: plasma FDP rise in rats: increases
[9]; glycan gained
  other: fibrin selectivity, other: ratio Fbn/Fbg: decreases, 13.100 vs 20.800
[13]; glycan gained
  enzymatic_activity, kcat_Km: decreases, 3257.040 ± 561.250 vs 5883.440 ± 983.570, The Kcat/Km of ANGlyα1 + 2 was 79% of rDSPAα1 when fibrin was used as a cofactor
[14]
  other: platelet count in rats, other: PLT: no change, 712.667 ± 16.010 vs 724.333 ± 50.817
[10]; glycan gained
  other: plasminogen activation in rats: decreases
[11]; glycan gained
  other: thrombolytic efficacy in rats, other: total score: decreases, 92.500 ± 1.049 vs 61.667 ± 1.966
[12]; glycan gained
  other: thrombolytic efficacy in rats, other: recanalized rats: decreases, 3/8 vs 4/8
[15]; glycan gained
  enzymatic_activity, kcat_Km: decreases, 248.960 ± 6.330 vs 282.240 ± 13.070
[4]; glycan gained
  stability_or_folding: no change

B4: DSPAα1: QNGlyα1-1 (protein)
parent chain: B1 parent chain
[1]; glycan lost
  enzymatic_activity, percent_of_wt: decreases
[16]
  enzymatic_activity, kcat_Km: no change, 38.800 ± 0.780 vs 34.830 ± 2.350
[2]; glycan lost
  stability_or_folding: no change
[3]; glycan lost
  expression_or_secretion, percent_of_wt: decreases
[9]; glycan lost
  other: fibrin selectivity, other: ratio Fbn/Fbg: decreases, 1.100 vs 20.800
[13]; glycan lost
  enzymatic_activity, kcat_Km: decreases, 333.760 ± 20.680 vs 5883.440 ± 983.570
[15]; glycan lost
  enzymatic_activity, kcat_Km: no change, 292.580 ± 1.780 vs 282.240 ± 13.070
[4]; glycan lost
  stability_or_folding: no change

B5: DSPAα1: QNGlyα1-2 (protein)
parent chain: B1 parent chain
[1]; glycan lost
  enzymatic_activity, percent_of_wt: decreases
[2]; glycan lost
  stability_or_folding: no change
[3]; glycan lost
  expression_or_secretion, percent_of_wt: decreases
[9]; glycan lost
  other: fibrin selectivity, other: ratio Fbn/Fbg: decreases, 8.500 vs 20.800
[4]; glycan lost
  stability_or_folding: no change
